Measured values: the nanobody polyreactivity screen of Harvey et al. (2022)

Assay: yeast display, Sf9 membrane polyspecificity reagent, FACS + sequencing; frameworks hold sequencing errors
How it was run: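 Galactose-induced (36–48 hours) yeast carrying a synthetic nanobody display library were exposed to 10% biotinylated, detergent-solubilized Sf9 membrane reagent at 4 °C for 1 hour. FACS followed streptavidin microbead enrichment, using low and high (top ~1%) gates for expression (anti-HA) and reagent binding (streptavidin). Colony PCR, MiSeq 2 × 250 sequencing and CDR-length filtering followed. Labels for polyreactivity reflect the gate of origin.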

| Sequence | polyreactivity (PSR sort gate) |
| --- | --- |
| QVQHVESGGALVQAAGSLSLRCAASGSTFGYNAMGWYRQAPSKEMELVAVITDSGGSSYYADSVKGRFTISRDNPKNTVYVQMHSLNPEDTAVYYCAKFYGLVVSGHVILSGFEYWGQGTLVTVSS | low polyreactivity |
| QVKLVESGGGLVQAGRSLRLSFAASGSTFLYYGMGWYRQAPGKERELVATITWRGGRTYYADSVKGRFTISRDNAKNTVYLQMNSLKPEDTAVYYCAARVVGSYRKPYPYGLYYWGQGTQVTVSS | high polyreactivity |
| QVQIVESGGGLVQAGGSLRLSCAASGFIFNIYAMGWYRQAPGKERELVAAITFSGGSTYYADSVKGRFTISRDNAKNTVYFQMNSLKPEDTAVYYCAADYLSEYTTYDYWGQGTQVTVSS | low polyreactivity |
| QVQLVESGGGLVQAGGSLRLICAASGFIFHSYAMGWYRQAPGKERELVARITIGDSTKYADSVKGRFTISRDNAKNTVYLQMNSLKPEDTAVYYCAADGWRYIAYYQGFRRMNYWGQGTQVTVSS | high polyreactivity |
| QVQLVESGGGLVQAGGSLRLSCAASGRTFYKYAMGWYRQAPGKERELVAAITSGGGRTYYADSVKGRFTISRDNAKNTVYLQMNSLIPEDTAVYYCNAVLPLAKYEYDSWGQGTQVTVSS | high polyreactivity |
| QVQLVESGGGLVQAGGSLRLSCAASGKTFRYNAMGWYRQAPGKERELVAAISRRGGSTYYADSVKGRFTISRDNAKNTVYLQMNSLKPEDTAVYYCNAGRTAENEYWGQGTQVTVSS | high polyreactivity |
| QVQLVESGGGLVQAGGSLRLSCAASGFIFWTYAMGWYRQAPGKERELVAAITWSGTSTYYADSVKGRFTISRDNAKNTVYLQMNSLKPEDTAVYYCNALYYSRRVDYWGQGTQVTVSS | high polyreactivity |
| QVQLVESGGGLVQAGGSLRLSCAASGGTFYHNVMGWYRQAPGKERELVAAIRYSGGRTYYADSVKGRFTISRDNAKNTVYLQMNSQKPEDTAVYYCAVRSYYGPFGYWGQGTQVTVSS | high polyreactivity |
| QVQLVESGGGLVQAGGSLRLSSAASGSIFGRYVMGWYRQAPGKERELVATISSGGSTYYADSVKGRFTISRDNAKNTVYLQMNSLKPEVTAVYYCNADYGYEYDYWGQGTQVTVSS | low polyreactivity |
| QFQLVESGGGLVQAGGSLRLRCAASGQTFRYYAMGWYRQAPGKERELVAAITRRGSTYYADSVKGRFTISRDNAKNTVNLQINSLKPEDTAVYYCATVTGFHSSPLRDLDYWGQGTQVTVSS | high polyreactivity |
| QVQLVESGGGLVQAGGSLRLSCAASGFTFFHYAMGWYIQAPGKERELVAAITRSGSSTYYADSVKGRFTISRDNAKNTVYLQMNSLKPEDTAVYYCAADYISRGGYTIEDYWGQGTQVTVSS | low polyreactivity |
| QVQLVESGGGLVQAGGSLRLSCAASGRTFYGYAMGWYRQAPGKERELVAAITQRGVSTYADSVKGRFTISRDNAKNTVYLQMNSLKPEDTAVYYCAAEYYAYPYGDDYDYWGQGTQVTVSS | low polyreactivity |
| QVQLVESGGGLVQAGGSLRLSCAASGRTFNIYAMGWYRQEPGKERELVAAITNNGGRTYYADSVKGRFTISRDNAKNTVYLQMNSLKPEDTAVYYCAAVSGRSYDKYYYWGQGTQVTVSS | high polyreactivity |
| QVQLVESGGGLVQAGGSLRLSCAASGNTFKYYAMGWYRQAPGKERELVAAISYSGGSTYYADSVKGRFTISRDNAKNTVYLLMNSLKPEVTAVYYCAADLDSERYYWGQGTQVTVSS | low polyreactivity |
| QVQHVESGGGLDQAGGSLRLSCAASGFIFGWYAMGWYRPAPGKERELVAAITWSGVRTYYADSVKGRFTISRDNAKNTVYLQMHSLKPEDTAVYYCARAGGSVGRGYKDQDGRGDYWGQGTEVTVSS | low polyreactivity |
| QVQLVESGGGLVQAGGSLRLSCAASGRIFTGYTMGWYRQAPGKERELVAGITRGGSTYYADSVKGRFTISRDNAKNTVYLQMNSLKPEDTAVYYCAADYPRFWYHSWYVPAYYYWGQGTQVTVSS | high polyreactivity |

| Sequence | polyreactivity (PSR sort gate) |
| --- | --- |
| QVQLVESGGGLVQAGGSLRLSCAAYGRTFWPNAMGWYRQAPGKERELVAAFSRRSGSTYYADSVKGRFTISRDNAKNTVYLQMNSLKPEDTAVYYCAAKYRAHGNHSWGQGTQVTVSS | high polyreactivity |
| QVQLEESRGGLVQAGGSLRLSFAAYGFTYFGYAMGWYRQAPGKERELVAAISTIDGDTYYADSVKGRFTISRDNAKNTFYLLMNSLKPEDNAFYYCAADDYIDGDDYWGQGTQVSVSS | low polyreactivity |
| QVQLVESGGGLVQAGGSLRLSCAASGFIFFDNAMGWYRHAPGKETELVAVISSSGTSTYYADSVKGRFTISRDNAKNTVYLQMNSLKPEDTAVYYCNATARTGVYLESDYWGQGTQVTVSS | low polyreactivity |
| HVQLVESGGGLVQAGGSLRLSCAASGYIFYVYAMGWYRQAPGKERELVAAINSGDITSYADSVKGRFTISRDNAKNTVYFQMNSLKPEDTAVYYCATVLILIYDYWGQGTQVTVSS | low polyreactivity |
| QVQLVETGGGLVQAGGSLRLSCAPSGRIFTYYGMGWYRQPPGKERELVAAITRSGGSTRYADSVKGRFTISRDNAKNTVYLQMNSLKPEDTAVYYCNAGGYWRYDYWGQGTQVTVSS | high polyreactivity |
| QVQLVESGGGLVQAGGSLRLSCAASGSIFKQYAMGWYRQAPGKERELVARITGSGGSTYYADSVKGRFTISRDNAKNTVYLQMNSLKPEDTAVYYCATKRYARSSGGYDYWGQGTQVTVSS | low polyreactivity |
| QVQLVESGGGLVQAGGSLRLSCAASGSTFVIYAMGWYRQAPGKERELVASIRGRTGSTYYADSVKGRFTISRDNAKNTVYLQMNSLKPEDTAVYYCAATPGYKSKMDYWGQGTQVTVSS | high polyreactivity |
| QVQLVESGGGLVQAGGSLRLSCAASGSTFVPYTMGWYRQAPGKERELVAAISGSGGTDYADSVKGRFTISRDNAKNTVYLQMNSLKPEDTAVYYCATDGLDFWFIYDYWGQGTHVTVSS | low polyreactivity |
| QVHLVESGGGLVQAGGSLRLSCAASGITFRRNAMGWYRQAPGKERELVARITVSGGTTYYADSVKGRFTISRDYAKNTVYLQMNSLKPEDTAVYYCAKVWHSSRVSPYDYWGQGTQVTVSS | low polyreactivity |
| QVQLVESGGCLVQAGGSLRLSCAASGNTFSTYTMGWYRQAPGKERELVAALTRSRGRTYYADSVKGRFTISRDTAKNTVYLQMNSLKPEDTAVYYCNAYTADLDDYWGQGNQVTVSS | high polyreactivity |
| QVQLVASGGGLVQAGGSLRLSCAASGSTFRVNVMGWYRQAPGIERELVADITTSGGSTYYADSVKGRFTISRDNAMITVYLQINSLTPEDTAVYYCNTTYQSGWGPDMDYWGQGTQVTVSS | low polyreactivity |
| QVHLVESGGGLLQAGGILSLSCAASGITIIVYVMGWYRQAPGKERELVATITYDDSTYADSVKGRFTISRDNAKNTVYFQMNSLKPEDTAVYYDYWGQGTQVTVSS | low polyreactivity |
| QVQLVESGGGLVQEGGSLRLSCAASGITFDNYDMGWYRQAPGKERELVAAISSDDNTTYADSVKGRFTISRDNAMNTVYFQMNSLKTDDTAVYYCAADYRIYGYLEYDYWGQGTQVTVSS | low polyreactivity |
| QVQLVESGGGLVQAGGSLRLSCAASGSIYVGNDMGWYSQAPGKESEFVATMSWAGGSTDYADSVKGRFTISRDNAKNTVYLQMNSQKPEDTAVYYCAKTPYSRYRYGGYTYRTFDYWGQGTQVTVSS | low polyreactivity |
| QVQLVESGGGLVQAGGSLRLSCAASGLIFNKYTMGWYRQAPGTERELVAAISKSGGSTYYADSVKGRFTISRDNAKNTVYLQMNSLKPEDTAVYYCNRVTHYIRFDYWGQGTQVTGSS | low polyreactivity |
| QVQLVESGGGLVQAGGSLRLSCAASGSIFSYYAMGWSRQAPGKERELVAAISSGGSRTYYADSVKGRFTISRDNAKNTVYLQMNSLKPEDTAVYYCNAPAPARYYRGHDYWGQGTQVTVSS | high polyreactivity |
